Columns and labels:
Assay in all cases: IEDB peptide-MHC binding, purified MHC/competitive/radioactivity; filed as Kd, often an IC50 or EC50 that approximates it; ≥ and ≤ were set here for values at or beyond the usual limits of such assays
HLA-A*33:01 = target: HLA-A*33:01
HLA-A*03:01 = target: HLA-A*03:01
HLA-A*68:01 = target: HLA-A*68:01
HLA-A*11:01 = target: HLA-A*11:01
HLA-A*31:01 = target: HLA-A*31:01
HLA-A*02:03 = details: source organism: Dengue virus 1 Brazil/97-11/1997
[1] = source organism: Vaccinia virus WR
[2] = source organism: Lymphocytic choriomeningitis virus (strain Armstrong)
[3] = source organism: SARS coronavirus Tor2
[4] = source organism: Mammarenavirus lassaense
[5] = source organism: Dengue virus 2 Peru/IQT2913/1996
[6] = source organism: Mammarenavirus tacaribeense

Row | Sequence | Kd (HLA-A*33:01; [1]) | Kd (HLA-A*03:01; [1]) | Kd (HLA-A*68:01; [1]) | Kd (HLA-A*11:01; [1]) | Kd (HLA-A*31:01; [1]) | further results
1 | RVRRYQIAQY | ≥ 70000 nM | 20.6 nM | 6340 nM | ≥ 25500 nM | 2440 nM | –
2 | SCQGSDDIRK | – | – | – | – | – | Kd (HLA-A*33:01; [2]): ≥ 70000 nM; Kd (HLA-A*03:01; [2]): ≥ 70000 nM; Kd (HLA-A*68:01; [2]): ≥ 70100 nM; Kd (HLA-A*11:01; [2]): 18300 nM; Kd (HLA-A*31:01; [2]): 9930 nM
3 | SFIEDLLFNK | – | – | – | – | – | Kd (HLA-A*33:01; [3]): 387 nM; Kd (HLA-A*03:01; [3]): 7950 nM; Kd (HLA-A*68:01; [3]): 725 nM; Kd (HLA-A*11:01; [3]): 352 nM; Kd (HLA-A*31:01; [3]): 53.5 nM
4 | SFIVPEFAK | 8350 nM | ≥ 43500 nM | 1120 nM | 103 nM | 27.3 nM | –
5 | SHLGPQFCK | – | – | – | – | – | Kd (HLA-A*33:01; [4]): ≥ 28300 nM; Kd (HLA-A*03:01; [4]): 699 nM; Kd (HLA-A*68:01; [4]): 6220 nM; Kd (HLA-A*11:01; [4]): 347 nM; Kd (HLA-A*31:01; [4]): ≥ 24200 nM
6 | SLTILDDNLY | 15000 nM | 491 nM | 5990 nM | 3070 nM | ≥ 47000 nM | –
7 | SLTSLLKTHR | – | – | – | – | – | Kd (HLA-A*33:01; [3]): 804 nM; Kd (HLA-A*03:01; [3]): 1450 nM; Kd (HLA-A*68:01; [3]): 698 nM; Kd (HLA-A*11:01; [3]): 1230 nM; Kd (HLA-A*31:01; [3]): 105 nM
8 | SLTVLFDGR | – | – | – | – | – | Kd (HLA-A*33:01; [3]): 2520 nM; Kd (HLA-A*03:01; [3]): 4810 nM; Kd (HLA-A*68:01; [3]): 1340 nM; Kd (HLA-A*11:01; [3]): 7530 nM; Kd (HLA-A*31:01; [3]): 350 nM
9 | SMTCIAVGMV | – | – | – | – | – | Kd (HLA-A*02:03): 21.5 nM
10 | SSLRREHIK | ≥ 37100 nM | 1070 nM | 14000 nM | 270 nM | 89.7 nM | –
11 | SSLVKNVNK | ≥ 77700 nM | 432 nM | 4400 nM | 27.1 nM | 1250 nM | –
12 | SSMTIREFPR | 17.3 nM | 9970 nM | 0.479 nM | 5.47 nM | 0.996 nM | –
13 | STGESSILR | 4730 nM | 310 nM | 196 nM | 928 nM | 1340 nM | –
14 | SVFYLYLTFY | – | – | – | – | – | Kd (HLA-A*33:01; [3]): 6010 nM; Kd (HLA-A*03:01; [3]): 1790 nM; Kd (HLA-A*68:01; [3]): 99.4 nM; Kd (HLA-A*11:01; [3]): 196 nM; Kd (HLA-A*31:01; [3]): 2860 nM
15 | SVKYYGRSTK | 13500 nM | 97.6 nM | 822 nM | 571 nM | 1340 nM | –
16 | TCQGSDDIK | – | – | – | – | – | Kd (HLA-A*33:01; [4]): 2840 nM; Kd (HLA-A*03:01; [4]): ≥ 78000 nM; Kd (HLA-A*68:01; [4]): 7390 nM; Kd (HLA-A*11:01; [4]): 16500 nM; Kd (HLA-A*31:01; [4]): 5090 nM

Row | Sequence | Kd (HLA-A*33:01; [1]) | Kd (HLA-A*03:01; [1]) | Kd (HLA-A*68:01; [1]) | Kd (HLA-A*11:01; [1]) | Kd (HLA-A*31:01; [1]) | further results
17 | TFFSTFKCY | – | – | – | – | – | Kd (HLA-A*33:01; [3]): 1150 nM; Kd (HLA-A*03:01; [3]): 5800 nM; Kd (HLA-A*68:01; [3]): 1070 nM; Kd (HLA-A*11:01; [3]): 4350 nM; Kd (HLA-A*31:01; [3]): 797 nM
18 | TLIAMDLGEL | – | – | – | – | – | Kd (HLA-A*02:03): 12.6 nM
19 | TLITLILSNK | 8500 nM | 1.61 nM | 3.73 nM | 3.41 nM | 570 nM | –
20 | TTFITPMLR | – | – | – | – | – | Kd (HLA-A*33:01; [5]): 11.7 nM; Kd (HLA-A*03:01; [5]): 13.2 nM; Kd (HLA-A*68:01; [5]): 6.76 nM; Kd (HLA-A*11:01; [5]): 84.4 nM; Kd (HLA-A*31:01; [5]): 27.1 nM
21 | TVNICIFYDR | 72.8 nM | 414 nM | 27.7 nM | 151 nM | 12.3 nM | –
22 | VALSSLVSK | ≥ 39800 nM | 283 nM | 1070 nM | 15.1 nM | 2040 nM | –
23 | VALYRRIQR | 12.8 nM | 16100 nM | 256 nM | 5240 nM | 2.27 nM | –
24 | VCLALTNSMK | – | – | – | – | – | Kd (HLA-A*33:01; [2]): ≥ 66800 nM; Kd (HLA-A*03:01; [2]): 42.4 nM; Kd (HLA-A*68:01; [2]): 19300 nM; Kd (HLA-A*11:01; [2]): 634 nM; Kd (HLA-A*31:01; [2]): 4560 nM
25 | VCPLGLLLK | – | – | – | – | – | Kd (HLA-A*33:01; [6]): ≥ 77700 nM; Kd (HLA-A*03:01; [6]): 5830 nM; Kd (HLA-A*68:01; [6]): ≥ 77600 nM; Kd (HLA-A*11:01; [6]): 2420 nM; Kd (HLA-A*31:01; [6]): ≥ 26500 nM
26 | VISKIYTLIY | 2240 nM | 101 nM | 1790 nM | 113 nM | 990 nM | –
27 | VLTSEEVVLK | – | – | – | – | – | Kd (HLA-A*33:01; [3]): ≥ 70000 nM; Kd (HLA-A*03:01; [3]): 7470 nM; Kd (HLA-A*68:01; [3]): 2100 nM; Kd (HLA-A*11:01; [3]): 966 nM; Kd (HLA-A*31:01; [3]): ≥ 70000 nM
28 | VSVSDFRDY | 11900 nM | ≥ 78000 nM | ≥ 77700 nM | 10400 nM | ≥ 77900 nM | –
29 | VTCAAYYFMK | – | – | – | – | – | Kd (HLA-A*33:01; [3]): 2620 nM; Kd (HLA-A*03:01; [3]): 12.7 nM; Kd (HLA-A*68:01; [3]): 49.2 nM; Kd (HLA-A*11:01; [3]): 6.93 nM; Kd (HLA-A*31:01; [3]): 199 nM
30 | VTLFYCDER | 284 nM | ≥ 43200 nM | 121 nM | 273 nM | 131 nM | –
31 | VTRKCPQKK | 12300 nM | 0.762 nM | 9880 nM | 61.5 nM | 13.7 nM | –
32 | VVVQIDPEY | ≥ 77700 nM | 141 nM | 110 nM | 2340 nM | ≥ 77900 nM | –

— the Immune Epitope Database (IEDB)
